# Test results from patent publication US20210246166A1 (Bayer, published 2021).
# Numbered stars: 1 amine (or outer) side, 2 acyl side, 3 side chain; on linkers, the order of the positions; unused ones are H or OH. Bridge positions count the residues as written; N and C are the ends. Square brackets hold non-standard residues; d marks the D form. Ends that are not written are not given here. (S)‑4‑Piperazine‑2‑carboxylic acid = (S)-4-piperazine-2-carboxylic acid; NHCH2(1,3-C6H4)CH2CO = O=C(Cc1cccc(CN[*:1])c1)[*:2]; Phe(3-COOH) = N[C@@H](Cc1cccc(C(=O)O)c1)C(=O)O; Oic = O=C(O)[C@@H]1C[C@@H]2CCCC[C@@H]2N1; tBuAla = CC(C)(C)C[C@H](N)C(=O)O; PEG4 = NCCOCCOCCOCCOCCC(=O)O; Pen = CC(C)(S)[C@H](N)C(=O)O; Orn = NCCC[C@H](N)C(=O)O; Sar = CNCC(=O)O
# T1: recombinant rat MASP1 active protease (amino acids 302-704, C-terminal His Tag) (rat, UniProt Q8CHN8 302-704)
# T1 sequence: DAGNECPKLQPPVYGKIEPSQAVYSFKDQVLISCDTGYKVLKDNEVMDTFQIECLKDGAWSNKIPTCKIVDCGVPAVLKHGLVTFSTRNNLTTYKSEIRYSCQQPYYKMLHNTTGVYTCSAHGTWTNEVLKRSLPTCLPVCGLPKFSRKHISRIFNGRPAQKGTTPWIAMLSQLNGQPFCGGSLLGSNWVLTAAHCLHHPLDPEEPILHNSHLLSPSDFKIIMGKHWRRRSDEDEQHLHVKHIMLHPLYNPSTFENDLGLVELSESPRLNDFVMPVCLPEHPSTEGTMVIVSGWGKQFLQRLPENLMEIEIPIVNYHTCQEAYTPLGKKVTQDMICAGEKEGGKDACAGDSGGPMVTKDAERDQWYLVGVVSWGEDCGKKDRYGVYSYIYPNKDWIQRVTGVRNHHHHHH
# B1: Example 487: ((N-Me)G)-IC+SRSLP-(Oic)-I-(Pen)+IPR-OH (peptide)
# peptide: [Sar]ICSRSLP[Oic]I[Pen]IPR-OH
# modifications: disulfide 3-11; N-terminus assumed
# SMILES: CC[C@H](C)[C@H](NC(=O)CNC)C(=O)N[C@H]1CSSC(C)(C)[C@@H](C(=O)N[C@H](C(=O)N2CCC[C@H]2C(=O)N[C@@H](CCCNC(=N)N)C(=O)O)[C@@H](C)CC)NC(=O)[C@H]([C@@H](C)CC)NC(=O)[C@@H]2C[C@@H]3CCCC[C@@H]3N2C(=O)[C@@H]2CCCN2C(=O)[C@H](CC(C)C)NC(=O)[C@H](CO)NC(=O)[C@H](CCCNC(=N)N)NC(=O)[C@H](CO)NC1=O
# B2: Example 482: ((N-Me)G)-IC+SRS-((tBu)A)-PPI-(Pen)+IP-((3-Carboxy)F)-OH (peptide)
# peptide: [Sar]ICSRS[tBuAla]PPI[Pen]IP[Phe(3-COOH)]-OH
# modifications: disulfide 3-11; N-terminus assumed
# SMILES: CC[C@H](C)[C@H](NC(=O)CNC)C(=O)N[C@H]1CSSC(C)(C)[C@@H](C(=O)N[C@H](C(=O)N2CCC[C@H]2C(=O)N[C@@H](Cc2cccc(C(=O)O)c2)C(=O)O)[C@@H](C)CC)NC(=O)[C@H]([C@@H](C)CC)NC(=O)[C@@H]2CCCN2C(=O)[C@@H]2CCCN2C(=O)[C@H](CC(C)(C)C)NC(=O)[C@H](CO)NC(=O)[C@H](CCCNC(=N)N)NC(=O)[C@H](CO)NC1=O
# B3: Example 478: aIC+SRSLP-(Oic)-I-(Pen)-+IP-(3-Aminomethylphenylacetic acid)-OH (peptide)
# peptide: [dA]ICSRSLP[Oic]I[Pen]IP[NHCH2(1,3-C6H4)CH2CO]-OH
# modifications: disulfide 3-11; N-terminus assumed
# SMILES: CC[C@H](C)[C@H](NC(=O)[C@@H](C)N)C(=O)N[C@H]1CSSC(C)(C)[C@@H](C(=O)N[C@H](C(=O)N2CCC[C@H]2C(=O)NCc2cccc(CC(=O)O)c2)[C@@H](C)CC)NC(=O)[C@H]([C@@H](C)CC)NC(=O)[C@@H]2C[C@@H]3CCCC[C@@H]3N2C(=O)[C@@H]2CCCN2C(=O)[C@H](CC(C)C)NC(=O)[C@H](CO)NC(=O)[C@H](CCCNC(=N)N)NC(=O)[C@H](CO)NC1=O
# B4: Example 485: ((N-Me)G)-IC+SRS-((tBu)A)-PPI-(Pen)+IP-(PEG3(16atoms))-OH (peptide)
# peptide: [Sar]ICSRS[tBuAla]PPI[Pen]IP[PEG4]-OH
# modifications: disulfide 3-11; N-terminus assumed
# SMILES: CC[C@H](C)[C@H](NC(=O)CNC)C(=O)N[C@H]1CSSC(C)(C)[C@@H](C(=O)N[C@H](C(=O)N2CCC[C@H]2C(=O)NCCOCCOCCOCCOCCC(=O)O)[C@@H](C)CC)NC(=O)[C@H]([C@@H](C)CC)NC(=O)[C@@H]2CCCN2C(=O)[C@@H]2CCCN2C(=O)[C@H](CC(C)(C)C)NC(=O)[C@H](CO)NC(=O)[C@H](CCCNC(=N)N)NC(=O)[C@H](CO)NC1=O
# B5: Example 469: (Orn)-IC+SRSLP-(Oic)-I-(Pen)+IPD-OH (peptide)
# peptide: [Orn]ICSRSLP[Oic]I[Pen]IPD-OH
# modifications: disulfide 3-11; N-terminus assumed
# SMILES: CC[C@H](C)[C@H](NC(=O)[C@@H](N)CCCN)C(=O)N[C@H]1CSSC(C)(C)[C@@H](C(=O)N[C@H](C(=O)N2CCC[C@H]2C(=O)N[C@@H](CC(=O)O)C(=O)O)[C@@H](C)CC)NC(=O)[C@H]([C@@H](C)CC)NC(=O)[C@@H]2C[C@@H]3CCCC[C@@H]3N2C(=O)[C@@H]2CCCN2C(=O)[C@H](CC(C)C)NC(=O)[C@H](CO)NC(=O)[C@H](CCCNC(=N)N)NC(=O)[C@H](CO)NC1=O
# B6: Example 486: ((N-Me)G)-IC+SRS-((tBu)A)-PPI-(Pen)+IP-(Orn)-D-OH (peptide)
# peptide: [Sar]ICSRS[tBuAla]PPI[Pen]IP[Orn]D-OH
# modifications: disulfide 3-11; N-terminus assumed
# SMILES: CC[C@H](C)[C@H](NC(=O)CNC)C(=O)N[C@H]1CSSC(C)(C)[C@@H](C(=O)N[C@H](C(=O)N2CCC[C@H]2C(=O)N[C@@H](CCCN)C(=O)N[C@@H](CC(=O)O)C(=O)O)[C@@H](C)CC)NC(=O)[C@H]([C@@H](C)CC)NC(=O)[C@@H]2CCCN2C(=O)[C@@H]2CCCN2C(=O)[C@H](CC(C)(C)C)NC(=O)[C@H](CO)NC(=O)[C@H](CCCNC(=N)N)NC(=O)[C@H](CO)NC1=O
# Molecular target: recombinant rat MASP2 active protease (amino acids 296-685, C-terminal His Tag) (rat, UniProt Q9JJS8 296-685)
# Sequence (Q9JJS8 other isoform, or with tags, fused parts or gaps limits assumed): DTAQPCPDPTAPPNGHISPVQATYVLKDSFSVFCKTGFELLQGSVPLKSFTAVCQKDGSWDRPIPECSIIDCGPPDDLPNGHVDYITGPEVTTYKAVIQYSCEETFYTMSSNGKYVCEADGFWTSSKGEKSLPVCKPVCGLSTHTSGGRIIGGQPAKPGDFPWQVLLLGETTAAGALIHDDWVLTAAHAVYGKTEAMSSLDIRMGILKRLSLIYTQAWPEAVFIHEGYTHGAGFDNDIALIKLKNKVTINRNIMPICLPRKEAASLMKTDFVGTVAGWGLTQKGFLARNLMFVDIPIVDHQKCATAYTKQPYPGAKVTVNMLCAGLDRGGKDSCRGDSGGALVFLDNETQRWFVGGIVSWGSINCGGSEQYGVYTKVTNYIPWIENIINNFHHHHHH
# Test: cell-based or functional assay
row,rat MASP2 IC50 [nM],Binder
1,71,[Sar]ICSRSLP[Oic]I[Pen]IPD[PEG4‑CH2CO2H(15atoms)]-OH (disulfide 3-11) [Example 471: ((N-Me)G)-IC+SRSLP-(Oic)-I-(Pen)+IPD-(PEG4-CH2CO2H (15 atoms))-OH]
2,38,B1
3,26,[Sar]ICSRSLP[Oic]I[Pen]I[(S)‑4‑Piperazine‑2‑carboxylic acid]-OH (disulfide 3-11) [Example 474: ((N-Me))-GIC+SRSLP-(Oic)-I-(Pen)+I-((S)-4-Piperazine-2-carboxylic acid)-OH]
4,33,B2
5,49,B3
6,32,B4
7,34,B5
8,54,[Sar]ICSRSLP[Oic]I[Pen]IP[PEG4‑CH2CO2H(15atoms)]-OH (disulfide 3-11) [Example 470: ((N-Me)G)-IC+SRSLP-(Oic)-I-(Pen)+IP-(PEG4-CH2CO2H (15 atoms))-OH]
9,68,B6

# Molecular target: T1, recombinant rat MASP1 active protease …
# Test: cell-based or functional assay
row,rat MASP1 IC50 [nM],Binder
1,78,[Sar]ICSRSLP[Oic]I[Pen]IPD[PEG4‑CH2CO2H(15atoms)]-OH (disulfide 3-11) [Example 471: ((N-Me)G)-IC+SRSLP-(Oic)-I-(Pen)+IPD-(PEG4-CH2CO2H (15 atoms))-OH]
2,67,B1
3,87,[Sar]ICSRSLP[Oic]I[Pen]I[(S)‑4‑Piperazine‑2‑carboxylic acid]-OH (disulfide 3-11) [Example 474: ((N-Me))-GIC+SRSLP-(Oic)-I-(Pen)+I-((S)-4-Piperazine-2-carboxylic acid)-OH]
4,18,B2
5,68,B3
6,36,B4
7,120,B5
8,100,[Sar]ICSRSLP[Oic]I[Pen]IP[PEG4‑CH2CO2H(15atoms)]-OH (disulfide 3-11) [Example 470: ((N-Me)G)-IC+SRSLP-(Oic)-I-(Pen)+IP-(PEG4-CH2CO2H (15 atoms))-OH]
9,69,B6
